In FireProtDB (doi:10.1021/bi00105a011):

B1: Lysozyme C, P61626 (parent)
chain: MKALIVLGLVLLSVTVQGKVFERCELARTLKRLGMDGYRGISLANWMCLAKWESGYNTRATNYNAGDRSTDYGIFQINSRYWCNDGKTPGAVNACHLSCSALLQDNIADAVACAKRVVRDPQGIRAWVAWRNRCQNRDVRQYVQGCGV

Variants of: B1
Settings: Homo sapiens; pH 3; 25 °C; GdnHCl; CD; glycine-HCl 40 mM; reversible: yes (100%); structure 1LZ1; whole UniProt chain shown

| Variant | ddG of mutation (higher = less stable) [kJ/mol] | denaturant m value [kcal/mol/M] | denaturant midpoint (higher = more stable) [M] | unfolding free energy [kJ/mol] |
| --- | --- | --- | --- | --- |
| V128P | -10 | 6.69 | 3.05 | 50.6 |
| P89G | 5.02 | 5.43 | 2.63 | 35.6 |
| D109P | 3.35 | 5.42 | 2.78 | 37.2 |
| P89G P121G | 4.6 | 5.48 | 2.64 | 36 |
| P121G | 0 | 5.55 | 2.95 | 40.6 |
| A65P | -4.6 | 5.5 | 3.3 | 45.2 |
